To fix the notation:
B1: SugT Sugar transporter promoter/5′UTR: putative nitrogen-regulated promoter/5′UTR, SEQ ID NO: 59 (nucleic acid, listed as Prototheca moriformis)
DNA: CCAGGCAGGCGGTAGGGTTGCCGATTGCTTGAGCGAATTGGAAGATATAATTTTTTGTGGTGTCCCTGGACGCTGTTTGTGGCGCTCCTTTTTGGAGAAGATTGCGTGGGGGAGCTTTCCATGTACCACGCTTCCTTCTGAAAGGATTCTGGCCGAGTCCTGATGAGCCCAAAGAAAACACCTGCCTTTCAGTGCTGGCACTCTGAAAACGTCAACAGATGATTATACATGTCACAAAAGGCAGCCGATTAGGAACGGGAGCTCTGGCCGTTCGTTTGGCTGCCTGGGCTGATTGAAGTGATCCACCCTGTTCGAATGAAGGCGGTCGAGTCGAATTATCGACCGGAGCTGTCGGGAAGGCGTCCGGGGCAGAGTGAGGTGCTGCGGCCTGGTTGTCGTTCAAAAAGACCCCGGTAGCCCAACAATCACGAACGAAAGGAATATAATTGCTTGCATACTATACATTCAGTTTCTATGTGGCGGGTAGACAAGTCTCATGGGCTTCTAAAGGCTGTCCCTTGAAGGCTACTTATAAAAACTTGCTGCGCCATGGCACGGATCGCGCTTGCGCAGGCTGCAACCCTGCGCGCAAGGTCAAATACACAGCAAAAGATACTAACAGAATTTCTAAAAACATTTAAATATTTGTTTCGACCAGCCAATTGTGGTCGTAGGCACGCAAAAGACTTTGTTTTGCGCCCACCGAGCATCCACGCTGGCAGTCAAGCCAGTCCGATGTGCATTGCGTGGCAGCATCGAGGAGCATCAAAAACCTCGTGCACGCTTTTCTGTCAATCATCATCAACCACTCCACCATGTATACCCGATGCATCGCGGTGCGCAGCGCGCCACGCGTCCCAGACCCGCCCAAAAACCCAGCAGCGGCGAAAGCAAATCTTCACTTGCCCGAAACCCCGAGCAGCGGCATTCACACGTGGGCGAAAACCCCACTTGCCCTAACAGGCGTATGTCTGCTGTCACGATGCCTGACAACGGTATTATAGATATACACTGATTAATGTTTGAGTGTGTGCGAGTCGCGAATCAGGAATGAATTGCTAGTAGGCACTCCGACCGGGCGGGGGCCGAGGGACCA
B2: Amt03-Ammonium transporter 03 promoter/5′UTR: putative nitrogen-regulated promoter/5′UTR, SEQ ID NO: 60 (nucleic acid, listed as Prototheca moriformis)
DNA: GGCCGACAGGACGCGCGTCAAAGGTGCTGGGCGTGTATGCCCTGGTCGGCAGGTCGTTGCTGTTGCTGCGCTCGTGGTTCCGCAACCCTGATTTTGGCGTCTTATTCTGGCGTGGCAAGCGCTGACGCCCGCGAGCCGGGCCGGCGGCGATGCGGTGTCTCACGGCTGCCGAGCTCCAAGGGAGGCAAGAGCGCCCGGATCAGCTGAAGGGCTTTACACGCAAGGTACAGCCGCTCCTGCAAGGCTGCGTGGTGGACTTGAACCTGTAGGTCCTCTGCTGAAGTTCCTCCACTACCTCACCAGGCCCAGCAGACCAAAGCACAGGCTTTTCAGGTCCGTGTCATCCACTCTAAAACACTCGACTACGACCTACTGATGGCCCTAGATTCTTCATCAACAATGCCTGAGACACTTGCTCAGAATTGAAACTCCCTGAAGGGACCACCAGAGGCCCTGAGTTGTTCCTTCCCCCCGTGGCGAGCTGCCAGCCAGGCTGTACCTGTGATCGAGGCTGGCGGGAAAATAGGCTTCGTGTGCTCAGGTCATGGGAGGTGCAGGACAGCTCATGAAACGCCAACAATCGCACAATTCATGTCAAGCTAATCAGCTATTTCCTCTTCACGAGCTGTAATTGTCCCAAAATTCTGGTCTACCGGGGGTGATCCTTCGTGTACGGGCCCTTCCCTCAACCCTAGGTATGCGCGCATGCGGTCGCCGCGCAACTCGCGCGAGGGCCGAGGGTTTGGGACGGGCCGTCCCGAAATGCAGTTGCACCCGGATGCGCGGCGCCTTTCTTGCGATAATTTATGCAATGGACTGCTCTGCAAATTTCTGGGTCTGTCGCCAACCCTAGGATCAGCGGCGTAGGATTTCGTAATCATTCGTCCTGATGGGGAGCTACCGACTACCCTAATATCAGCCCGGCTGCCTGACGCCAGCGTCCACTTTTGCGTACACATTCCATTCGTGCCCAAGACATTTCATTGTGGTGCGAAGCGTCCCCAGTTACGCTCACCTGTTTCCCGACCTCCTTACTGTTCTGTCGACAGAGCGGGCCCACAGGCCGGTCGCAGCC
B3: SulfRed Sulfite reductase promoter/5′UTR: putative nitrogen-regulated promoter/5′UTR, SEQ ID NO: 58 (nucleic acid, listed as Prototheca moriformis)
DNA: GGCCCAGGGCCCTGCGGATGGCCCACACCAGATCTAGCCTCTCTTATGCCATGCCCGCCTCGCTGCCCGTCGTATCCCCCCGCCGATCCGCGCGTAGGGGACCGCGGCCTGACCCACGCCACGAAAGAGCTTTGCTCCTCAATTTCTCGCCAACAGAACCGTATCAAACGCTCAACGCCTATCCCGAACAATCCGTATTCACACCAAATCGAGTATACCGGACTGGTTTGCCTAGTCTTGAAGGAAATGATCCCGTCCATGCTCGGAAGGGGGAGCGGGCGGAGGATCCTACTCATCTCTGAAATGGGATTGGTCCGAAGATGGGTTGGGCAAGCACGTGCCAAACCCCAGCGAGTTGCTGACGAGCAGGCTCATCCAATCCCCCGGCGAATCCTCCCTCACGCCCCGCATGCATACAAGTCCCTCCCACACGCCCCCTCCCATCCATTTTCGCCTGGTCCGAACGCGAGCGGCGTCGAGGCGGACCACTTGCTCCGCAGCGCCGTCTGGGTCTCCACCCCACAGCGGCTTTGCTGCCAGAGGCACCCCCCTTGCCCCACCTCCTCTTGCAGCC
B4: Flap Flagellar-associated protein promoter/5′UTR: putative nitrogen-regulated promoter/5′UTR, SEQ ID NO: 57 (nucleic acid, listed as Prototheca moriformis)
DNA: CAACGACAACCAGCAGGCAACTCGGTCAGCGACCCAACACGCGAGTCAAATTGTTGCGTGTTCTTGCCTTGTCTATTTACTGTGATAGCAAGACTGTCGGTCAGTCAATACCGCGGTGCGCACGTCGGGGTGCCAAGCCTAGCAGAGCACGGGACGGCTGGTGCTGTGCGCCAGCTCAGCTCGCTTCGCGACCAATTGTAGGACCGGCAAAGTCACCAAAACATGCCAGCGGTGCGATTCAATTGGTCATGAGCTCTACAAAATTGTTTTGTGCGTCGCGCAGGTATCCAACGGCGCGGCAGAGAAAGTTTGACAGCTCTCGATTTCATCTCGGAAAAATGGGGAGAATTTATGACACACAAGTGCGCAGGCGGCCCAGGCGGCCAGCATATTCTGGCGTGACCTGGGCCGCCCACAAAATGCTTGGATGCACTCTAAAATAATTATATTTGCCATGAACAAGGGAAGAGTTACCGCACCCAGCCCTAGACTTGGGCGCCCGAGCAAGGTTACGTCAAGCCACCTTCGCCCATCGCCCAACTCCGTATTCCCCGACAGCCGCACGTGGCCCTCGCCGGAATGAACCCTGAATCGGCATCACGCCACGCGTTCGCCAATCGTTCCGCTCTCTGGCTTCATCGGCCTGCGCCTTCACGTCGTGGTCACGACAGTGCATTCATACTTCCATTTGCACCTCGGCACACACTTTTACGCATCGCCTACCCTTGCTGCGGCAGTCTAGGGTCACTTTGCAGCCATGGGACAGTGCTACACCACCGTCGGTGCGCAAAGCTATTTCAAGTGAACCGTGGGCGGAAAAAAGGAATGTACACTGTCTCAACCGACTCCTACAATTGTTTACCATGCAGATCAGAGCTCGACGGCCATCATCGAGCAGGTGTGGGGCCTTGGTGGCGCGGCGCGGGGCCCCAGGGCGTCGCAGGCATTGATGGCACTCTGAGACTTTCGCACGCGCATGAGGGACCCCATCAAGAGAAGAGTGTGTCTTTATGTCCCCATTCATGATGATGTATCTTGTGATTGTCGCAGTTTGGCAAGTTTAACCGGATCGCCGCTCCAGGTGTGGCGTGGCGGATTTTTCTAGGGGTGCTTGAGCAGTCG

The data set concerns Prototheca moriformis (UTEX 1435). Put plainly: cDNA abundance by real-time RT-PCR under nitrogen depletion. Particulars: after 24 hours of culture in low nitrogen medium. It counts as cell-based. How it is done:
A cDNA library was generated from Prototheca moriformis (UTEX 1435) using standard techniques. The Prototheca moriformis cells were grown for 48 hours under nitrogen replete conditions. […] After about 24 hours in culture, the nitrogen supply in the media was completely depleted. The collected samples were immediately frozen using dry ice and isopropanol. Total RNA was subsequently isolated from the frozen cell pellet samples and a portion from each sample was held in reserve for RT-PCR studies. The rest of the total RNA harvested from the samples was subjected to polyA selection. Equimolar amounts of polyA selected RNA from each condition was then pooled and used to generate a cDNA library in vector pcDNA 3.0 (Invitrogen). Roughly 1200 clones were randomly picked from the resulting pooled cDNA library and subjected to sequencing on both strands. Approximately 68 different cDNAs were selected from among these 1200 sequences and used to design cDNA-specific primers for use in real-time RT-PCR studies. RNA isolated from the cell pellet samples that were held in reserve was used as substrate in the real time RT-PCR studies using the cDNA-specific primer sets generated above. This reserved RNA was converted into cDNA and used as substrate for RT-PCR for each of the 68 gene specific primer sets. […] As discussed in the specification, nitrogen depletion/limitation is a known inducer of lipogenesis in oleaginous microorganisms. Fold increase refers to the fold increase in cDNA abundance after 24 hours of culture in low nitrogen medium.
For orientation: Real-time PCR tracks product formation cycle by cycle.
In the case of B1, the “Fold increased (cDNA abundance)” value amounted to 17.35.

As for B2, the “Fold increased (cDNA abundance)” value worked out at 10.1.

Consider B3, for which the “Fold increased (cDNA abundance)” value came to 10.91.

Turning to B4, the “Fold increased (cDNA abundance)” value came out at 4.92.

The values above are taken from patent publication US10100341B2, “Tailored oils produced from recombinant oleaginous microorganisms” (Corbion Biotech, Inc., priority 2011, dated 2018).
